Laboratory results: patent US20240067944A1 (published 2024)
Substitutions are numbered along the chain they refer to. Each block holds one molecule with its values, some of them ahead of it.

Tests used:
[1] = target: human plasma-derived FX (Haematologic Technologies Inc, USA) (human) (UniProt P00742); test: cell-based or functional assay
[2] = target: T1, human plasma-derived FX (Haematologic Technologies Inc, USA) (human, UniProt P00742 41-179; P00742 183-488); test: SPR, FX captured on immobilised anti-GLA-FX antibody, steady state analysis, 25 C
T1 construct: also called coagulation Factor X; human FX
T1 sequence (P00742 41-179, chain 1 of 2): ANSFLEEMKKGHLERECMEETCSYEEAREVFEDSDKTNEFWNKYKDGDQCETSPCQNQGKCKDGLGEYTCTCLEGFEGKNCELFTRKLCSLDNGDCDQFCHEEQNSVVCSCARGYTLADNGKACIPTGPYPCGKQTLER
T1 sequence (P00742 183-488, chain 2 of 2): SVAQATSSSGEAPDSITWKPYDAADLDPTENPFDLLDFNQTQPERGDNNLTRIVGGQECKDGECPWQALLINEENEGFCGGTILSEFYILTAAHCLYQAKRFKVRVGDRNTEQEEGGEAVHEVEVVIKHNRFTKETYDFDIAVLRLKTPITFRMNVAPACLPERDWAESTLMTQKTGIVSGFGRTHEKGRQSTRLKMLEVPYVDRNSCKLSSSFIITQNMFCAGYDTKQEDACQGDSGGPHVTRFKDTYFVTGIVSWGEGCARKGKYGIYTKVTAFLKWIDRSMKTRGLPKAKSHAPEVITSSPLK
Description: Briefly, an anti-GLA-FX, prepared recombinantly as described above, was immobilised on a CM4 sensor chip or a Xantec HLC200M using standard amine coupling chemistry at pH 5. 10 nM FX (Haematologic Technologies, USA) was injected at a flow rate of 10 μL/min for 30 seconds. Subsequently 1000, 100, 10, 1, 0.1 and 0 nM of VHH polypeptide compound, according to Table 9, below were injected at a flow rate of 50 μL/min for 200 seconds to allow for binding to FX followed by a flow of 10 minutes with a running buffer (10 mM HEPES, 150 mM NaCl, 5 mM CaCl₂), 0.05% (v/v) Surfactant P20, 1 mg/mL bovine serum albumin, pH 7.4) injection allowing for dissociation from FX. The running buffer was also used for dilution of anti-FX VHH polypeptide compounds. Regeneration of the chip was achieved using a regeneration buffer consisting of 50 mM EDTA in running buffer, 30 seconds contact time, and a 30 μL/min flow rate. The binding data were collected at 25° C. and were analysed according to a 1:1 model using BiaEvaluation 4.1 supplied by the manufacturer (Biacore AB, Uppsala or Bruker Analyser).
(§1) Therefore, the reported KD values are determined based on steady state analysis.

[3] = target: T2, Benefix (Pfizer Inc, USA), FIX (human, UniProt P00740 47-461); test: SPR, FIX (Benefix) captured on immobilised anti-GLA-FIX antibody, steady state analysis, 25 C
T2 construct: Bought product; also called FIX (Benefix®)
T2 sequence (P00740 47-461 T194A limits assumed): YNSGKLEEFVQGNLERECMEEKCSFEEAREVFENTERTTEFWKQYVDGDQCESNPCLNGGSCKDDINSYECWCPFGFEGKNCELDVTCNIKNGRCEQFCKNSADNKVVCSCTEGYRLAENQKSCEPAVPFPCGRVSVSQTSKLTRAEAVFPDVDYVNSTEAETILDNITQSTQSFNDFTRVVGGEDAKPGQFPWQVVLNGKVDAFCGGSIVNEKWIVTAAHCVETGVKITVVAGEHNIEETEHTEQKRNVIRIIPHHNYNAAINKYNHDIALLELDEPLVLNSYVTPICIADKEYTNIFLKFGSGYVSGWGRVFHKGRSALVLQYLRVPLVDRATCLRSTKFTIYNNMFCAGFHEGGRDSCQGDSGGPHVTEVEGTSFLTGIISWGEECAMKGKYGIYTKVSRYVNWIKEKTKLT
Description: Briefly, anti-GLA-FIX, prepared recombinantly as described above, was immobilised on a CM4 sensor chip or a Xantec HLC200M using standard amine coupling chemistry at pH 5. FIX (10 nM) was injected at a flow rate of 10 μL/min for 1 minute. Subsequently 1000, 100, 10, 1, 0.1 and 0 nM of VHH polypeptide compound were injected at a flow rate of 30 μL/min for 4 minutes to allow for binding to the FIX (Benefix®) followed by a flow of 5 minutes running buffer (10 mM HEPES, 150 mM NaCl, 5 mM CaCl₂), 0.05% (v/v) Surfactant P20, 1 mg/mL bovine serum albumin, pH 7.4) injection allowing for dissociation from FIX. The running buffer was also used for dilution of anti-FIX VHH polypeptide compounds. Regeneration of the chip was achieved using a regeneration buffer consisting of 50 mM EDTA in running buffer, 30 seconds contact time, and a 30 μL/min flow rate. The binding data were collected at 25° C. and were analysed according to a 1:1 model using BiaEvaluation 4.1 supplied by the manufacturer (Biacore AB, Uppsala).
as §1

[4] = target: T1, human plasma-derived FX (Haematologic …); test: cell-based or functional assay

Sequence of human plasma-derived FX (Haematologic Technologies Inc, USA) (human) (P00742 41-179, chain 1 of 2): as the sequence (P00742 41-179, chain 1 of 2) above
Sequence of human plasma-derived FX (Haematologic Technologies Inc, USA) (human) (P00742 183-488, chain 2 of 2): as the sequence (P00742 183-488, chain 2 of 2) above

KM (nM) of FX activation by 0.1 nM FIXa on phospholipid vesicles with 300 nM antibody [1]: 53.5 nM
kcat/KM (1/(min * nM)) of FX activation by 0.1 nM FIXa with 300 nM antibody [1]: 500000 M⁻¹ s⁻¹
Molecule: emicizumab sequence identical analogue (SIA) (bispecific antibody)

Kd [2]: 229 nM
Kd [3]: 11.7 nM
B1: Cmpd #4 (anti-FX/anti-FIX(a) VHH polypeptide derivative) (bispecific antibody)
chain: DVQLVESGGGVVQPGGSLRLSCAASGRTHSRYAMGWFRQAPGKEREFVAAISRRGGSTNYADSVKGRFTISRDNSKNTVYLQMNSLRPEDTALYYCAADDSSGDGYLDYWGQGTLVTVSSGGGGSGGGSEVQLVESGGGVVQPGGSLRLSCAASGRTFNIYTMSWFRQAPGKEREFVAGLRWTDSSTEYADSVKGRFTISRDNSKNTVYLQMNSLRPEDTALYYCAADRSFLFAQALGATKNYEYWGQGTLVTVSSGGGGSCHHHHHH
modifications: C18 diacid protractor (P3) via linker LP1 on Cys6 in C-term extension (SEQ ID NO: 7)
notes: Single chain of two VHH: anti-FX (N-terminal) and anti-FIX(a) (C-terminal)

Kd [2]: 199 nM
Kd [3]: 2.7 nM
B2: Cmpd #5 (anti-FX/anti-FIX(a) VHH polypeptide derivative) (bispecific antibody)
chain: B1 chain with R19Q, K43Q, N84D, R148Q, K172Q, N213D
modifications: C18 diacid protractor (P3) via linker LP1 on Cys6 in C-term extension (SEQ ID NO: 7)
notes: as for B1

KM (nM) of FX activation by 0.1 nM FIXa on phospholipid vesicles with 5 nM compound [4]: 3.9 nM
kcat/KM (1/(min * nM)) of FX activation by 0.1 nM FIXa with 5 nM compound [4]: 4.5e+06 M⁻¹ s⁻¹
B3: Cmpd #21 (anti-FX/anti-FIX(a) VHH polypeptide derivative) (bispecific antibody)
chain: DVQLVESGGGVVQPGGSLQLSCAASGGTKSRYAMGWFRQAPGQEREFVAAISRRGGSTNYADSVKGRFTISRDNSKNTVYLDMDDLRPEDTALYYCAADDSVGDGYLDYWGQGTLVTVSSGQAPGQEVQLVESGGGVVQPGGSLQLSCAASGRTFNIYTMSWFRQDPGQEREFVAGLRWTDSSTEYADSVKGRFTISRDNSKNTVYLQMDSLRPEDTALYYCAADRSFLFAQALGATKNYEYWGQGTLVTVSSGQACPC
modifications: C16 diacid protractor (P2) via linker LP1 on Cys4 and Cys6 in C-term extension (SEQ ID NO: 9)

KM (nM) of FX activation by 0.1 nM FIXa on phospholipid vesicles with 5 nM compound [4]: 7.1 nM
kcat/KM (1/(min * nM)) of FX activation by 0.1 nM FIXa with 5 nM compound [4]: 2.33e+06 M⁻¹ s⁻¹
B4: Cmpd #16 (anti-FX/anti-FIX(a) VHH polypeptide derivative) (bispecific antibody)
chain: B3 chain with S30R, Y32L, F47W, Q145R, T154Y, D210N
modifications: C16 diacid protractor (P2) via linker LP1 on Cys4 and Cys6 in C-term extension (SEQ ID NO: 9)

Kd [2]: 42 nM
Kd [3]: 1.6 nM
B5: Cmpd #14 (anti-FX/anti-FIX(a) VHH polypeptide derivative) (bispecific antibody)
chain: B3 chain with S30R, Y32L, D82Q, D85S, D166A
modifications: C16 diacid protractor (P2) via linker LP1 on Cys4 and Cys6 in C-term extension (SEQ ID NO: 9)
notes: Single chain of two VHH: anti-FX (N-terminal) and anti-FIX(a) (C-terminal); also called VHH1.14-L1-2-VHH2.14-E

KM (nM) of FX activation by 0.1 nM FIXa on phospholipid vesicles with 5 nM compound [4]: 8.2 nM
kcat/KM (1/(min * nM)) of FX activation by 0.1 nM FIXa with 5 nM compound [4]: 5e+06 M⁻¹ s⁻¹
B6: Cmpd #19 (anti-FX/anti-FIX(a) VHH polypeptide derivative) (bispecific antibody)
chain: B3 chain with F47W, D82Q, D85S, D166A
modifications: C16 diacid protractor (P2) via linker LP1 on Cys4 and Cys6 in C-term extension (SEQ ID NO :9)

KM (nM) of FX activation by 0.1 nM FIXa on phospholipid vesicles with 5 nM compound [4]: 9 nM
kcat/KM (1/(min * nM)) of FX activation by 0.1 nM FIXa with 5 nM compound [4]: 2.5e+06 M⁻¹ s⁻¹
B7: Cmpd #17 (anti-FX/anti-FIX(a) VHH polypeptide derivative) (bispecific antibody)
chain: B3 chain with F47W
modifications: C16 diacid protractor (P2) via linker LP1 on Cys4 and Cys6 in C-term extension (SEQ ID NO: 9)

KM (nM) of FX activation by 0.1 nM FIXa on phospholipid vesicles with 5 nM compound [4]: 6.9 nM
kcat/KM (1/(min * nM)) of FX activation by 0.1 nM FIXa with 5 nM compound [4]: 4.17e+06 M⁻¹ s⁻¹
Kd [2]: 350 nM
Kd [3]: 3 nM
B8: Cmpd #15 (anti-FX/anti-FIX(a) VHH polypeptide derivative) (bispecific antibody)
chain: B3 chain with S30R, Y32L, F47W, D82Q, D85S, D166A
modifications: C16 diacid protractor (P2) via linker LP1 on Cys4 and Cys6 in C-term extension (SEQ ID NO:9)
notes: Single chain of two VHH: anti-FX (N-terminal) and anti-FIX(a) (C-terminal); also called VHH1.15-L1-2-VHH2.15-E

KM (nM) of FX activation by 0.1 nM FIXa on phospholipid vesicles with 5 nM compound [4]: 6.2 nM
kcat/KM (1/(min * nM)) of FX activation by 0.1 nM FIXa with 5 nM compound [4]: 3e+06 M⁻¹ s⁻¹
Kd [2]: 300 nM
Kd [3]: 2 nM
B9: Cmpd #13 (anti-FX/anti-FIX(a) VHH polypeptide derivative) (bispecific antibody)
chain: B3 chain with S30R, Y32L, F47W
modifications: C16 diacid protractor (P2) via linker LP1 on Cys4 and Cys6 in C-term extension (SEQ ID NO: 9)
notes: Single chain of two VHH: anti-FX (N-terminal) and anti-FIX(a) (C-terminal); also called VHH1.13-L1-2-VHH2.13-E

KM (nM) of FX activation by 0.1 nM FIXa on phospholipid vesicles with 5 nM compound [4]: 4.8 nM
kcat/KM (1/(min * nM)) of FX activation by 0.1 nM FIXa with 5 nM compound [4]: 4.5e+06 M⁻¹ s⁻¹
Kd [2]: 96 nM
Kd [3]: 2.5 nM
B10: Cmpd #8 (anti-FX/anti-FIX(a) VHH polypeptide derivative) (bispecific antibody)
chain: B3 chain with D82Q, D85S, D166A
modifications: C16 diacid protractor (P2) via linker LP1 on Cys4 and Cys6 in C-term extension (SEQ ID NO: 9)
notes: as for B1

Kd [2]: 26 nM
Kd [3]: 7.8 nM
B11: Cmpd #12 (anti-FX/anti-FIX(a) VHH polypeptide derivative) (bispecific antibody)
chain: B3 chain with S30R, Y32L
modifications: C16 diacid protractor (P2) via linker LP1 on Cys4 and Cys6 in C-term extension (SEQ ID NO: 9)
notes: Single chain of two VHH: anti-FX (N-terminal) and anti-FIX(a) (C-terminal); also called VHH1.12-L1-2-VHH2.12-E

Kd [2]: 190 nM
Kd [3]: 5.5 nM
B12: Cmpd #10 (anti-FX/anti-FIX(a) VHH polypeptide derivative) (bispecific antibody)
chain: B3 chain with S30R, Y32L, F47W, D82Q, D85S, Q145R, D166A, D210N
modifications: C16 diacid protractor (P2) via linker LP1 on Cys4 and Cys6 in C-term extension (SEQ ID NO: 9)
notes: as for B1

Kd [2]: 42 nM
Kd [3]: 6.4 nM
B13: Cmpd #11 (anti-FX/anti-FIX(a) VHH polypeptide derivative) (bispecific antibody)
chain: B3 chain with S30R, Y32L, Q145R, D210N
modifications: C16 diacid protractor (P2) via linker LP1 on Cys4 and Cys6 in C-term extension (SEQ ID NO: 9)
notes: as for B1

Kd [2]: 70 nM
Kd [3]: 1.1 nM
B14: Cmpd #9 (anti-FX/anti-FIX(a) VHH polypeptide derivative) (bispecific antibody)
chain: B3 chain with Q145R, D210N
modifications: C16 diacid protractor (P2) via linker LP1 on Cys4 and Cys6 in C-term extension (SEQ ID NO: 9)
notes: as for B1

Kd [2]: 82 nM
Kd [3]: 2.3 nM
B15: Cmpd #7 (anti-FX/anti-FIX(a) VHH polypeptide derivative) (bispecific antibody)
chain: B3 chain with D82Q, D85S, Q145R, D166A, D210N
modifications: C16 diacid protractor (P2) via linker LP1 on Cys4 and Cys6 in C-term extension (SEQ ID NO: 9)
notes: as for B1

KM (nM) of FX activation by 0.1 nM FIXa on phospholipid vesicles with 5 nM compound [4]: 5.9 nM
kcat/KM (1/(min * nM)) of FX activation by 0.1 nM FIXa with 5 nM compound [4]: 5.5e+06 M⁻¹ s⁻¹
Kd [2]: 232 nM
Kd [3]: 4.8 nM
B16: Cmpd #6 (anti-FX/anti-FIX(a) VHH polypeptide derivative) (bispecific antibody)
chain: DVQLVESGGGVVQPGGSLQLSCAASGRTHSRYAMGWFRQAPGQEREFVAAISRRGGSTNYADSVKGRFTISRDNSKNTVYLQMDSLRPEDTALYYCAADDSSGDGYLDYWGQGTLVTVSSGGGGSGGGSEVQLVESGGGVVQPGGSLQLSCAASGRTFNIYTMSWFRQAPGQEREFVAGLRWTDSSTEYADSVKGRFTISRDNSKNTVYLQMDSLRPEDTALYYCAADRSFLFAQALGATKNYEYWGQGTLVTVSSGGGGCSCHHHHHH
modifications: C16 diacid protractor (P2) via linker LP1 on Cys5 and Cys7 in C-term extension (SEQ ID NO: 8)
notes: as for B1
